Source: US20240182596A1 (TUBULIS, published 2024)
Changes are numbered by the printed parent chain. Values belong to the binder of their own block, whether it stands above or below them.

Experiments:
[1] = biological target: T1, purified recombinant human Napi2b antigen consisting of Napi2b-extracellular-loop2 expressed as … (human, UniProt O95436 234-362, limits assumed); experiment: ELISA, coated Napi2b-extracellular-loop2-Fc-6-His, apparent KD from one-site fit
T1 construct: Expressed in Expi-HEK293 cells; also called immobilized human NaPi2B; not shown: Fc part; 6-His tag
T1 sequence: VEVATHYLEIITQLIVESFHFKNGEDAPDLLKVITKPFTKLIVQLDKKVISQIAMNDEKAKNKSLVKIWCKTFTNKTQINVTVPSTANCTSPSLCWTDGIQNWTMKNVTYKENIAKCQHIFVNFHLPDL

[2] = biological target: T2, human NaPi2b on NaPi2b-positive cell lines OVCAR-3 and HCC-78 (human, UniProt O95436 1-690); experiment: flow cytometry on OVCAR-3 cells; table column Binding KD (nmol/L), FACS (OVCAR-3)
T2 construct: Endogenous protein
T2 sequence: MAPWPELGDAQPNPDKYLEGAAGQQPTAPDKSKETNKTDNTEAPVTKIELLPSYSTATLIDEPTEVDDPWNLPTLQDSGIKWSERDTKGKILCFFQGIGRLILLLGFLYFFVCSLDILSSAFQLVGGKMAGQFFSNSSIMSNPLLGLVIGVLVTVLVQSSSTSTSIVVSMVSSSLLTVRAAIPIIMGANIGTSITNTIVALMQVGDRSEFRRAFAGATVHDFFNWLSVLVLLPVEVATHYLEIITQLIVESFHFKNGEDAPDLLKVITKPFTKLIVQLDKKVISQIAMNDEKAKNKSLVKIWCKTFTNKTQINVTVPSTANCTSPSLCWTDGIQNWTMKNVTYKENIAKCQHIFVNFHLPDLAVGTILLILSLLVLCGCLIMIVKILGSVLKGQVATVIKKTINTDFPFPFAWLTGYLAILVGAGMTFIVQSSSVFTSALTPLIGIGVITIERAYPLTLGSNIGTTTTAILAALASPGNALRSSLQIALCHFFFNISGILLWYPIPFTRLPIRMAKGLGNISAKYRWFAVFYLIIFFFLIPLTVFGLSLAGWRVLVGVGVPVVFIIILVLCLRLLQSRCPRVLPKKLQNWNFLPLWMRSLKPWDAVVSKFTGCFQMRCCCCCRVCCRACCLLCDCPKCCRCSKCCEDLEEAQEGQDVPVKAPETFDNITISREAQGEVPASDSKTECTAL

[3] = biological target: T1, purified recombinant human Napi2b …; experiment: ELISA on the isolated immobilized protein; table column Binding KD (nmol/L), ELISA
[4] = biological target: T3, human Napi2b-mCherry on HEK293 cells (human, UniProt O95436 1-690); experiment: flow cytometry on HEK293 cells stably expressing human full-length NaPi2b-mCherry, Alexa-dye anti-human IgG H+L secondary antibody, MFI ratio, one-site specific binding fit; the Kd table prints no unit, the concentration axis is in nM
T3 construct: also called Napi2b (SLC34A2); HEK293 cells overexpressing Napi2b
T3 sequence: T2 sequence
Source text: (§1) HEK293 cells stably overexpressing human and rat Napi2b were generated by stable integration of a human or rat full-length Napi2b-mCherry-(GGGS)3x-mCherry expression construct under control of a human EF1 promoter and a Puromycin-selection cassette under a CMV promoter into the parental HEK293 cell line. In brief, cells were transfected with the linearized plasmids using Lipfectamine 2000 (Thermo Fisher) and selected with Puromycin antibiotic. Cells were then single cell cloned in 96-well plates via serial dilution under continuous antibiotic selection. Clones were screened for target expression via flow cytometry and mCherry fluorescence via flow cytometry and fluorescence microscopy. Target- and mCherry-positive clones were expanded and used for further experiments. […] Binding of antibodies was investigated on mCherry-positive cells. Mean fluorescence intensity (MFI) ratios were normalized to the secondary antibody control. The assay was performed in duplicates and data points were analyzed by a non-linear regression using a one-site specific binding model to derive KD values using Prism 9 software.

[5] = biological target: T4, HEK293 cyno-NaPi2B-mCherry (Macaca fascicularis, UniProt A0A2K5UHY1); experiment: flow cytometry on HEK293 cells stably expressing cynomolgus full-length NaPi2b-mCherry, Alexa-dye anti-human IgG H+L secondary antibody, MFI ratio, one-site specific binding fit; the Kd table prints no unit, the concentration axis is in nM
T4 construct: full-length mCherry fusion stably expressed on HEK293 cells; also called cynomolgus full-length NaPi2b-mCherry on HEK293 cells
T4 sequence (target on cells): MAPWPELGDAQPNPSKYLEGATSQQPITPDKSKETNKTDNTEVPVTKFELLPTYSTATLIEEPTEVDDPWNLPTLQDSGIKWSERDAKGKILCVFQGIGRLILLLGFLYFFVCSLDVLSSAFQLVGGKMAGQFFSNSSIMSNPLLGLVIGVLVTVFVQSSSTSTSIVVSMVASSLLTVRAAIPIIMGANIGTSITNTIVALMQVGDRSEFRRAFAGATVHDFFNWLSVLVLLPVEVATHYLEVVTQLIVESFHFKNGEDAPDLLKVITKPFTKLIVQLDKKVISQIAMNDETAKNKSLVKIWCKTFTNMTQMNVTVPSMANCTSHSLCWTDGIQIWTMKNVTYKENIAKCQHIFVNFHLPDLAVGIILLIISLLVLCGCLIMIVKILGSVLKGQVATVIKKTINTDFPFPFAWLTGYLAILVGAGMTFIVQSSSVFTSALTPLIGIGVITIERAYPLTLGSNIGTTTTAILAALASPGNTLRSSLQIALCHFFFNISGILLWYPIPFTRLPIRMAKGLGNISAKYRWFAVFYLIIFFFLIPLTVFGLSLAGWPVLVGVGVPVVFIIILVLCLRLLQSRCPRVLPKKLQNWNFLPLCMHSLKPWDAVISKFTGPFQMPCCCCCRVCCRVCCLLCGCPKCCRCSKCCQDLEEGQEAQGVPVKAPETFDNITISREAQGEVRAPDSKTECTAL
Source text: as §1

[6] = biological target: T2, human NaPi2b on NaPi2b-positive cell …; experiment: flow cytometry on HCC-78 cells, one-site fit
Procedure: (§2) To determine concentration-dependent binding, NaPi2b-positive OVCAR-3 and HCC-78 were incubated with antibodies in concentrations ranging from 0.00075 to 30 μg/ml, stained with an Alexa-dye-labeled anti-human IgG H+L secondary antibody (Thermo Fisher Scientific), and analyzed by flow cytometry. Mean fluorescence intensity (MFI) ratios were normalized to the non-specific binding control. The assay was performed in duplicates and data points were analyzed by a non-linear regression using a one-site specific binding model using Prism 9 software.

[7] = biological target: T2, human NaPi2b on NaPi2b-positive cell …; experiment: flow cytometry on OVCAR-3 cells, one-site fit
Procedure: as §2

[8] = biological target: T2, human NaPi2b on NaPi2b-positive cell …; experiment: flow cytometry on NaPi2b-positive HCC-78 cells, Alexa-dye-labeled anti-human IgG H+L secondary antibody, MFI ratio normalized to the non-specific binding control
Procedure: as §2

[9] = biological target: T2, human NaPi2b on NaPi2b-positive cell …; experiment: flow cytometry on NaPi2b-positive OVCAR-3 cells, Alexa-dye-labeled anti-human IgG H+L secondary antibody, MFI ratio normalized to the non-specific binding control
Procedure: as §2

Kd [6]: 1.27 µg/mL
Kd [7]: 1.11 µg/mL
EC50 (read off the curve) [8]: ~1 µg/mL
EC50 (read off the curve) [9]: ~1 µg/mL
B2: Upifitamab (antibody, human IgG1, kappa, L234A L235A, V domains shown)
VH: EVQLVQSGAEVVKPGASVKMSCKASGYTFTGYNIHWVKQAPGQGLEWIGAIYPGNGDTSYKQKFRGRATLTADTSTSTVYMELSSLRSEDSAVYYCARGETARATFAYWGQGTLVTVSS
VL: DIQMTQSPSSLSASVGDRVTITCSASQDIGNFLNWYQQKPGKTVKVLIYYTSSLYSGVPSRFSGSGSGTDYTLTISSLQPEDFATYYCQQYSKLPLTFGQGTKLELKR
notes: Bought from MedChemExpress

Kd [1]: 0.0124 µg/mL
Kd [2]: 3.5 nM
Kd [3]: 0.082 nM
Kd [4]: 2.66 nM
Kd [5]: 1.91 nM
B5: AV-29 antibody (antibody, human IgG1, kappa, L234A L235A, V domains shown)
VH: B2 VH with H35L, D57G, L70I, T101I
VL: B2 VL with T51A

The next lines start with the binder.

B1: AV-15 antibody (antibody, human IgG1, kappa, L234A L235A, V domains shown)
VH: B2 VH
VL: B2 VL with N31K, T51S, L94V
Kd [1]: 0.0158 µg/mL
Kd [2]: 6.6 nM
Kd [3]: 0.105 nM
Kd [4]: 3.5 nM
Kd [5]: 2.7 nM

B3: AV-18 antibody (antibody, human IgG1, kappa, L234A L235A, V domains shown)
VH: B2 VH with N33I, N55S, D57A
VL: B2 VL
Kd [1]: 0.0149 µg/mL
Kd [2]: 3.8 nM
Kd [3]: 0.099 nM
Kd [4]: 2.31 nM
Kd [5]: 1.61 nM

B4: AV-21 antibody (antibody, human IgG1, kappa, L234A L235A, V domains shown)
VH: B2 VH with Y32Q, N33I, Y52S, G56S, D57G
VL: B2 VL
Kd [1]: 0.0125 µg/mL
Kd [2]: 3.5 nM
Kd [3]: 0.083 nM
Kd [4]: 2.08 nM
Kd [5]: 1.5 nM
